Among the data in publication doi:10.1101/2020.05.05.078790 are percent of the VL9 signal after background subtraction values, retold here.

This assay deals with HLA-E*0103 heavy chain-β2M complex (human). The assay is described as follows: ELISA. In general terms: An ELISA detects its analyte on a solid surface through an enzyme-linked reagent.
As to BZLF1 (…) (peptide), the percent of the VL9 signal after background subtraction amounted to 41%.
In the case of RL9HIV (…) (peptide) it was 43%; in that of RL9SIV (…) (peptide), 22%.
